A short description of the data set: self-splicing fitness, log relative to wild type (ln ratio); higher = more splicing; Tetrahymena group I intron in knt gene, E. coli kanamycin selection, DiMSum; sequences stand for … in CUCUCU…GGAGGGAAAAGUUAUCAGGCAUGCACCUGGUAGCUAGUCUUUAAACCAAUAGAUUGCAUCGGUUUAAAAGGCAAGACCGUCAAAUUGCGGGAAAGGGGUCAACAGCCGUUCAGUACCAAGUCUCAGGGGAAACUUUGAGAUGGCCUUGCAAAGGGUAUGGUAAUAAGCUGACGGACAUGGUCCUAACCACGCAGCCAAGUCCUAAGUCAACAGAUCUUCUGUUGAUAUGGAUGCAGUUCACAGACUAAAUGUCGGUCGGGGAAGAUGUAUUCUUCUCAUAAGAUAUAGUCGGACCUCUCCUUAAUGGGAGCUAGCGGAUGAAGUGAUGCAACACUGGAGCCGCUGGGAACUAAUUUGUAUGCGAAAGUAUAUUGAUUAGUUUUGGAGUACUCGUGGUCG
The procedure, abridged: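 A randomised library covering all eight P1ex-region intron nucleotides was built with the intron in the knt kanamycin-resistance gene on pET-22b(+) and held in E. coli BL21(DE3). Cells were grown overnight at 37°C or 30°C on LB agar, with or without 25 μg/mL kanamycin, plus 100 μg/mL carbenicillin, 50 μM IPTG and 0.2% rhamnose, and pooled colonies were amplicon-sequenced on an Illumina HiSeq 2500. DiMSum fitness is the error-weighted combination of wild-type-normalised replicate fold changes, kanamycin versus none.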

± gives the uncertainty stated by the source.

With UUGAAGCAAUAUUACGUAGC, the “self-splicing fitness (ln)” value is, setting by setting: (30 °C) -3.42 ± 0.28; (37 °C) -2.53 ± 0.33.
For the sequence UAGGAGCAAUAUUACGCUAA, the “self-splicing fitness (ln)” value (37 °C) is -1.57 ± 0.41.
As to UUUAAGCAAUAUUACGCCAU, under “37 °C”, the “self-splicing fitness (ln)” value is -2.36 ± 0.29.
Consider CACUAGCAAUAUUACGCGGG, for which the “self-splicing fitness (ln)” value reads like this: (30 °C) -2.48 ± 0.13; (37 °C) -2.01 ± 0.15.
With CCCUAGCAAUAUUACGUAAC, the “self-splicing fitness (ln)” value by setting is: (30 °C) -3.66 ± 0.27; (37 °C) -1.33 ± 0.18.
For AGUGAGCAAUAUUACGGCAU, in that order: -1.36 ± 0.12 and -0.254 ± 0.13.
For the sequence UGAGAGCAAUAUUACGUUGC, the “self-splicing fitness (ln)” value (30 °C) is -2.35 ± 0.22 and the “self-splicing fitness (ln)” value (37 °C) was -1.06 ± 0.33.
The corresponding values for AAAUAGCAAUAUUACGGUAA are -2.14 ± 0.21 and -1.5 ± 0.16.
On to GGUUAGCAAUAUUACGUUCG, for which the “self-splicing fitness (ln)” value (30 °C) was -0.206 ± 0.089 and the “self-splicing fitness (ln)” value (37 °C) is 0.151 ± 0.11.
For GUGUAGCAAUAUUACGACUA, in that order: -0.34 ± 0.11 and 0.0605 ± 0.12.
For AUUAAGCAAUAUUACGGUAC, in that order: -3.84 ± 0.47 and -1.6 ± 0.2.
The corresponding values for GACGAGCAAUAUUACGUCAU are -2.2 ± 0.2 and -3.16 ± 0.43.
Regarding CCGUAGCAAUAUUACGCUGA, the “self-splicing fitness (ln)” value (30 °C) was -2.87 ± 0.31 and the “self-splicing fitness (ln)” value (37 °C) is -2.06 ± 0.28.
With AAGCAGCAAUAUUACGUGGC, the “self-splicing fitness (ln)” value is -4.15 ± 0.39 (30 °C) and -1.92 ± 0.2 (37 °C).
In the case of UGAGAGCAAUAUUACGCGUU, the “self-splicing fitness (ln)” value (30 °C) was -3.23 ± 0.2 and the “self-splicing fitness (ln)” value (37 °C) is -3.69 ± 0.34.
As to CAGGAGCAAUAUUACGGGCC, the “self-splicing fitness (ln)” value (30 °C) was -3.76 ± 0.42.
Consider GGCGAGCAAUAUUACGGGCA, for which the “self-splicing fitness (ln)” value by setting is: (30 °C) -0.695 ± 0.15; (37 °C) -0.194 ± 0.15.
The corresponding values for GGCUAGCAAUAUUACGACUU are -0.0915 ± 0.084 and -0.0421 ± 0.11.
Take UGUAAGCAAUAUUACGCGCU: the “self-splicing fitness (ln)” value (30 °C) was -0.925 ± 0.078 and the “self-splicing fitness (ln)” value (37 °C) was -0.315 ± 0.11.
Regarding UUCGAGCAAUAUUACGCUCG, the “self-splicing fitness (ln)” value is -1.64 ± 0.25 (30 °C) and -3.36 ± 0.42 (37 °C).
Regarding CAGAAGCAAUAUUACGGCGA, the “self-splicing fitness (ln)” value runs as follows: (30 °C) -1.43 ± 0.15; (37 °C) -1.5 ± 0.18.
As for UGUCAGCAAUAUUACGGCGG, the “self-splicing fitness (ln)” value by setting is: (30 °C) -0.922 ± 0.084; (37 °C) 0.0377 ± 0.12.
Consider AUGGAGCAAUAUUACGGCCA, for which the “self-splicing fitness (ln)” value runs as follows: (30 °C) -1.49 ± 0.18; (37 °C) -0.494 ± 0.21.
The corresponding values for CGUGAGCAAUAUUACGUGAG are -0.77 ± 0.072 and -1.61 ± 0.097.
As for CAGAAGCAAUAUUACGGUCC, the “self-splicing fitness (ln)” value (30 °C) was -2.94 ± 0.33.
As for AAGAAGCAAUAUUACGGAUA, the “self-splicing fitness (ln)” value by setting is: (30 °C) -1.67 ± 0.1; (37 °C) -1.38 ± 0.12.
The corresponding values for ACCGAGCAAUAUUACGCAAA are -3.62 ± 0.24 and -3.11 ± 0.24.
The corresponding values for ACCGAGCAAUAUUACGGACA are -1.25 ± 0.15 and -0.523 ± 0.15.
For GCUCAGCAAUAUUACGCUUG, in that order: -2.04 ± 0.11 and 0.227 ± 0.1.
For the sequence UAACAGCAAUAUUACGGGUG, the “self-splicing fitness (ln)” value was -0.577 ± 0.049 (30 °C) and -0.256 ± 0.068 (37 °C).
On to UAAGAGCAAUAUUACGUUCA, for which the “self-splicing fitness (ln)” value is -1.29 ± 0.13 (30 °C) and -0.735 ± 0.14 (37 °C).
For UGUGAGCAAUAUUACGAUCU, in that order: -1.57 ± 0.15 and -0.175 ± 0.14.
The corresponding values for AACAAGCAAUAUUACGUUUA are -2.45 ± 0.09 and -1.07 ± 0.074.
On to CUGCAGCAAUAUUACGUUUA, for which the “self-splicing fitness (ln)” value is -2.64 ± 0.19 (30 °C) and -1.21 ± 0.19 (37 °C).
As for CCGUAGCAAUAUUACGAUUA, the “self-splicing fitness (ln)” value is -2.57 ± 0.2 (30 °C) and -1.86 ± 0.26 (37 °C).
The corresponding values for UAAGAGCAAUAUUACGAAGU are -3.61 ± 0.31 and -1.85 ± 0.41.
As to CGGGAGCAAUAUUACGUCAU, the “self-splicing fitness (ln)” value (30 °C) was -3.09 ± 0.49.
With GACUAGCAAUAUUACGUAAA, the “self-splicing fitness (ln)” value by setting is: (30 °C) -0.826 ± 0.097; (37 °C) 0.0101 ± 0.12.
For UGUAAGCAAUAUUACGAAUC, in that order: -1.82 ± 0.25 and -2.33 ± 0.49.
For the sequence UGGAAGCAAUAUUACGGGGC, the “self-splicing fitness (ln)” value was -3.24 ± 0.44 (30 °C) and -1.35 ± 0.26 (37 °C).
For the sequence CUAAAGCAAUAUUACGGCAG, the “self-splicing fitness (ln)” value reads like this: (30 °C) -0.0254 ± 0.076; (37 °C) -0.422 ± 0.098.
For GAUAAGCAAUAUUACGUCCG, in that order: -4.76 ± 0.36 and -2.1 ± 0.22.
As for GAUCAGCAAUAUUACGUGAC, the “self-splicing fitness (ln)” value by setting is: (30 °C) -1.62 ± 0.094; (37 °C) -1.63 ± 0.12.
For CCUAAGCAAUAUUACGGACA, in that order: -1.7 ± 0.31 and -2.24 ± 0.31.
The corresponding values for AUCCAGCAAUAUUACGCGAA are -0.821 ± 0.054 and -0.468 ± 0.07.
The corresponding values for AUCGAGCAAUAUUACGAUCG are -2.9 ± 0.22 and -3.06 ± 0.34.
Turning to GAGAAGCAAUAUUACGGAAC, the “self-splicing fitness (ln)” value by setting is: (30 °C) -2.78 ± 0.19; (37 °C) -0.25 ± 0.16.
The corresponding values for UGCGAGCAAUAUUACGGGAC are -3.69 ± 0.39 and -1.88 ± 0.23.
Take CAACAGCAAUAUUACGUAGA: the “self-splicing fitness (ln)” value reads like this: (30 °C) -2.68 ± 0.081; (37 °C) -1.18 ± 0.081.
For GUCGAGCAAUAUUACGCAUA, in that order: -2.14 ± 0.18 and -1.6 ± 0.16.
For the sequence UCCAAGCAAUAUUACGCCAA, the “self-splicing fitness (ln)” value was -2.68 ± 0.21 (30 °C) and -0.487 ± 0.22 (37 °C).
For CUCCAGCAAUAUUACGGUAG, in that order: -3.88 ± 0.19 and -3.24 ± 0.27.
For AACUAGCAAUAUUACGGCAA, in that order: -1.01 ± 0.076 and -0.905 ± 0.09.
For UCGAAGCAAUAUUACGCGGU, in that order: -2.73 ± 0.3 and -2.48 ± 0.36.
Turning to GUUAAGCAAUAUUACGCGUG, the “self-splicing fitness (ln)” value runs as follows: (30 °C) -0.781 ± 0.1; (37 °C) -0.78 ± 0.099.
The corresponding values for GGUGAGCAAUAUUACGCACA are -1.07 ± 0.15 and -0.679 ± 0.17.
In the case of CAGGAGCAAUAUUACGACCA, the “self-splicing fitness (ln)” value (37 °C) is -1.27 ± 0.31.
Consider ACACAGCAAUAUUACGGACG, for which the “self-splicing fitness (ln)” value (30 °C) was -0.635 ± 0.057 and the “self-splicing fitness (ln)” value (37 °C) was 0.0496 ± 0.073.
On to CCCCAGCAAUAUUACGCAGC, for which the “self-splicing fitness (ln)” value (30 °C) was -3.44 ± 0.15 and the “self-splicing fitness (ln)” value (37 °C) is -2.84 ± 0.21.
For CCAUAGCAAUAUUACGGGUC, in that order: -3.41 ± 0.35 and -2.23 ± 0.23.
The corresponding values for UAUCAGCAAUAUUACGGACG are -0.108 ± 0.091 and 0.00709 ± 0.11.
For the sequence UGGGAGCAAUAUUACGUAGA, under “30 °C”, the “self-splicing fitness (ln)” value is -2.19 ± 0.26.

The record behind these values is the supplement of paper PMC7877785.
